Residue numbers refer to the chain shown, from its start. Names may count otherwise. Some results are limits rather than exact numbers.

The target in assay [1] is T1, recombinant human MSLN ECD His-tag protein (Acro Biosystems, Catalog #MSN-H5223) (human, UniProt Q13421 296-580, limits assumed).
T1 construct: extracellular domain; Bought protein; also called human MSLN protein; recombinant human MSLN-His tag; not shown: His-tag
Put plainly: BLI (Octet Red384), antibody on AHC sensor, human MSLN-His in solution. As for the experimental part:
In the example, binding kinetics of anti-MSLN antibodies to soluble MSLN were analyzed by Octet Red384 (Fortebio). In Bio-Layer Interferometry (BLI) analysis, recombinant human MSLN-His tag (Acro Biosystems, Catalog #MSN-H5223) was serially diluted with 1× kinetic buffer (Fortebio). Anti-MSLN antibodies were diluted to 5 μg/mL. Then the diluted antibodies, antigen and regeneration buffer (10 mM glycine pH 1.75) were added to 96-well plates (Greiner). Rate constants for association and dissociation were measured using AHC sensor (Fortebio). The sensor surface was regenerated after each binding experiment with regeneration buffer. The traces were processed using Octet Data Analysis Software (version 11.0, Pall ForteBio, CA, USA).

Assay [2] has as its target T2, membrane-bound human MSLN (on CHOK1-hu MSLN cells and endogenously on COV644 cells) (human, UniProt Q13421 296-598). Kind of assay: cell-based or functional assay.
Assay [3] addresses T2, membrane-bound human MSLN (on CHOK1-hu …). Kind of assay: flow cytometry on COV644 cells. The protocol:
(§1) Binding of recombinant anti-MSLN antibodies to COV644 cell line (ECACC, catalog: 07071908) was tested by flow cytometry. In brief, anti-MSLN antibodies were serially diluted in staining buffer (PBS containing 2% FBS). 50 μL of diluted antibody solution was added to 50 μL of cell suspension containing 1-2×10⁵ cells and incubated at 4° C. for 1 hour. The cells were washed twice with staining buffer (PBS containing 2% FBS), and 100 μL of 1:1000 diluted florescent labeled anti-human IgG antibody (Alexa Fluor® 488 AffiniPure Goat Anti-Human IgG(H+L), Jackson ImmunoResearch, Catalog 109-545-088) was added into each well. After 1-hour incubation at 4° C., cells were washed twice with staining buffer and subjected to flow cytometry.

Assay [4] has the same target. Put plainly: flow cytometry on CHOK1-human MSLN cells, Alexa Fluor 488 anti-human IgG detection [panel A]. The protocol: (§2) Binding of recombinant anti-MSLN antibodies to human or cynomolgus MSLN-expressing cells was tested by flow cytometry.
as §1, with “In” for “Binding of recombinant anti-MSLN antibodies to COV644 cell line (ECACC, catalog: 07071908) was tested by flow cytometry. In”

Assay [5] shares this target. Kind of assay: flow cytometry on COV644 cells (endogenous human MSLN), Alexa Fluor 488 anti-human IgG detection [panel A]. As for the experimental part:
as §2
as §1, with “In” for “Binding of recombinant anti-MSLN antibodies to COV644 cell line (ECACC, catalog: 07071908) was tested by flow cytometry. In”

Assay [6] shares this target. Put plainly: flow cytometry on CHOK1-human MSLN cells, Alexa Fluor 488 anti-human IgG detection [panel B]. The protocol:
as §2
as §1, with “In” for “Binding of recombinant anti-MSLN antibodies to COV644 cell line (ECACC, catalog: 07071908) was tested by flow cytometry. In”

T1 sequence (Q13421 other isoform, or with tags, fused parts or gaps limits assumed): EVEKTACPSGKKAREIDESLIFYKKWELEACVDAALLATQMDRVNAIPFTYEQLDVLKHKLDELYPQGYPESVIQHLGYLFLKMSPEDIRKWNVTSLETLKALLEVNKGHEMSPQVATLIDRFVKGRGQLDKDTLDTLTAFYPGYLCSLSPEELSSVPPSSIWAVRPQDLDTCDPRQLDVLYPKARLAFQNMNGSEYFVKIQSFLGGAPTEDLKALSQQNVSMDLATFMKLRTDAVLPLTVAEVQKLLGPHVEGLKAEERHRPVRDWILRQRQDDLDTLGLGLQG
T2 sequence (Q13421 other isoform, or with tags, fused parts or gaps limits assumed): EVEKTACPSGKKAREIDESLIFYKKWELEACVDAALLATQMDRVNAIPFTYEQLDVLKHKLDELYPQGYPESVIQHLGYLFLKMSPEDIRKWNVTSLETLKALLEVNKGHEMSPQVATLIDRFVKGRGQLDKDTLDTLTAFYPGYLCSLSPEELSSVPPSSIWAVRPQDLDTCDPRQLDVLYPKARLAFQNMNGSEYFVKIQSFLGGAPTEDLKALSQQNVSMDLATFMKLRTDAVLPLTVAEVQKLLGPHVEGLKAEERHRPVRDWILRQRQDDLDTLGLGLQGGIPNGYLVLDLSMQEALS

B1: PR300159 (antibody, V domains shown)
VH: QVQLVESGGGVVQPGRSLRLSCAASGFTFSSDGMNWVRQAPGKGLEWVAVIWNDGSNKYYADSVKGRFTISRDNSKNTLYLQMNSLRAEDTAVYYCARDRGPLWPLDYWGQGTLVTVSS
VL: DIQMTQSPSTLSASVGDRVTITCRASQSISRWLAWYQQKPGKAPKLLIYKASSLESGVPSRFSGSGSGTEFTLTISNLQPDDFATFYCQQYNSYSRTFGQGTKVEIKR
notes: Parental antibody from Harbour H2L2 mice
As to B1, in assay [1], the dissociation constant (Kd) was 0.00965 nM and the kon was 1.28e+06 M⁻¹ s⁻¹. Besides, the “Internalization FLU” value in assay [2] was 22200 FLU. In assay [3], the EC50 was 1.99 nM and the “TOP (MFI)” value is 2.07e+06 MFI. The “EC50 (read off the curve)” value in assay [4] is around 1 nM. Moreover, the “EC50 (read off the curve)” value in assay [5] is around 0.4 nM.

B2: PR300159-9 (antibody, V domains shown)
VH: B1 VH with G33A, D54E
VL: B1 VL with S93A
notes: PTM removal variant of PR300159: heavy chain G33A and D54E, light chain S93A
For the molecule B2, in assay [1], the dissociation constant Kd was below 0.001 nM and the on-rate (kon) is 566000 M⁻¹ s⁻¹. In assay [2], the “Internalization FLU” value is 8300 FLU. In assay [3], a half-maximal response (EC50) required 8.25 nM and the “TOP (MFI)” value worked out at 1.56e+06 MFI.

B3: PR300159-3 (antibody, V domains shown)
VH: B1 VH with G33A, G55A
VL: B1 VL
notes: PTM removal variant of PR300159: heavy chain G33A and G55A
Regarding B3, in assay [1], the Kd was below 0.001 nM and the kon worked out at 828000 M⁻¹ s⁻¹. Moreover, the “Internalization FLU” value in assay [2] was found to be 9180 FLU. Besides, in assay [3], a half-maximal response (EC50) required 2.14 nM and the “TOP (MFI)” value worked out at 2.06e+06 MFI.

B4: PR300159-8 (antibody, V domains shown)
VH: B1 VH
VL: B1 VL with N92A
notes: PTM removal variant of PR300159: light chain N92A
For the molecule B4, in assay [1], the Kd is below 0.001 nM and the kon is 956000 M⁻¹ s⁻¹. For the same molecule, the “Internalization FLU” value in assay [2] worked out at 21200 FLU. In assay [3], a half-maximal effect (EC50) was put at 2.33 nM and the “TOP (MFI)” value stood at 2.15e+06 MFI.

B5: PR300159-4 (antibody, V domains shown)
VH: B1 VH
VL: B1 VL with S93A
notes: PTM removal variant of PR300159: light chain S93A
For B5, in assay [1], the Kd was below 0.001 nM and the kon amounted to 978000 M⁻¹ s⁻¹. Besides, the “Internalization FLU” value in assay [2] came to 20900 FLU.

B6: PR300159-1 (antibody, V domains shown)
VH: B1 VH with G33A, D54E
VL: B1 VL with N92S
notes: PTM removal variant of PR300159: heavy chain G33A and D54E, light chain N92S
In the case of B6, in assay [1], the Kd is below 0.001 nM and the kon was 947000 M⁻¹ s⁻¹. For the same molecule, in assay [2], the “Internalization FLU” value worked out at 13700 FLU. In assay [3], a half-maximal effect (EC50) was put at 1.64 nM and the “TOP (MFI)” value is 2.34e+06 MFI.

B7: PR300159-6 (antibody, V domains shown)
VH: B1 VH
VL: B1 VL with S93T
notes: PTM removal variant of PR300159: light chain S93T
For B7, in assay [1], the Kd was below 0.001 nM and the kon was 819000 M⁻¹ s⁻¹. Also, the “Internalization FLU” value in assay [2] was determined as 17800 FLU. For the same molecule, in assay [3], a half-maximal effect (EC50) was put at 4.07 nM and the “TOP (MFI)” value was found to be 2.19e+06 MFI.

B8: PR300159-5 (antibody, V domains shown)
VH: B1 VH
VL: B1 VL with N92Q
notes: PTM removal variant of PR300159: light chain N92Q
As for B8, in assay [1], the Kd is below 0.001 nM and the kon was 1.05e+06 M⁻¹ s⁻¹. Besides, the “Internalization FLU” value in assay [2] turned out to be 20900 FLU. Besides, in assay [3], the EC50 stood at 2.75 nM and the “TOP (MFI)” value was determined as 2.13e+06 MFI.

B9: PR300159-7 (antibody, V domains shown)
VH: B1 VH
VL: B1 VL with N92T
notes: PTM removal variant of PR300159: light chain N92T
For B9, in assay [1], the Kd is below 0.001 nM and the kon is 1.06e+06 M⁻¹ s⁻¹. In assay [2], the “Internalization FLU” value was determined as 22400 FLU.

B10: PR300186 (antibody, human IgG1, kappa, V domains shown)
VH: QVQLQESGPGLVKPSETLSLTCTVSGGSINNYYWSWVRQPPGKGLEWIGYIFYSGSTNSNPSLKSRVIISVDTSKNQFSLKLSSVTAADTAVYYCAREVGRIAVAGWFFDLWGRGTLVTVSS
VL: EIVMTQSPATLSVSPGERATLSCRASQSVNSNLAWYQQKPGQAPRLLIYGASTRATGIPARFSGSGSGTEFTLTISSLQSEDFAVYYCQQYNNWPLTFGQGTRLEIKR
notes: as for B1
Turning to B10, in assay [1], the Kd is 18.6 nM and the kon was 705000 M⁻¹ s⁻¹. For the same molecule, the “Internalization FLU” value in assay [2] was 6050 FLU. Also, the “EC50 (read off the curve)” value in assay [6] is around 0.4 nM.

B11: PR300186-3 (antibody, human IgG1, kappa, V domains shown)
VH: B10 VH with N30Q, N58Q
VL: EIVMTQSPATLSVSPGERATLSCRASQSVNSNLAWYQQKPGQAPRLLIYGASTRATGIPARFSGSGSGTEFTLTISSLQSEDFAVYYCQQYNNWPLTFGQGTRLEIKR
For the molecule B11, the “Internalization FLU” value in assay [2] is 7040 FLU.

B12: PR300186-9 (antibody, human IgG1, kappa, V domains shown)
VH: B10 VH
VL: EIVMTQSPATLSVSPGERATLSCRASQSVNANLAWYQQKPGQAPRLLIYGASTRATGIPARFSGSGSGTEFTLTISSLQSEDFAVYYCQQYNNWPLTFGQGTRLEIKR
With B12, the “Internalization FLU” value in assay [2] turned out to be 8070 FLU.

B13: PR300186-10 (antibody, human IgG1, kappa, V domains shown)
VH: B10 VH with N30Q, N58Q
VL: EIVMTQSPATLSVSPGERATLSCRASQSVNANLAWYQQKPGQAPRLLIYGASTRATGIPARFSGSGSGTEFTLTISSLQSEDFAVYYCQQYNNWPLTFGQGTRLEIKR
notes: PTM removal variant of PR300186: heavy chain N30Q and N58Q, light chain S31A
As to B13, in assay [1], the Kd stood at 128 nM and the kon was found to be 431000 M⁻¹ s⁻¹. For the same molecule, the “Internalization FLU” value in assay [2] stood at 8220 FLU.

For the origin of these results see patent US20260265405A1 (NONA BIOSCIENCES SUZHOU, published 2026).
